Laboratory results taken from patent US20060252677A1 (published 2006).

Target: T1, His-tag fused human PJ01087 protein (Protein-Y) (human, UniProt O95886 1-979)
T1 construct: Used as 1% Triton-X supernatant of E. coli; also called His-PJ01087; not shown: N-terminal His-tag and linker encoded by vector pDEST17
T1 sequence: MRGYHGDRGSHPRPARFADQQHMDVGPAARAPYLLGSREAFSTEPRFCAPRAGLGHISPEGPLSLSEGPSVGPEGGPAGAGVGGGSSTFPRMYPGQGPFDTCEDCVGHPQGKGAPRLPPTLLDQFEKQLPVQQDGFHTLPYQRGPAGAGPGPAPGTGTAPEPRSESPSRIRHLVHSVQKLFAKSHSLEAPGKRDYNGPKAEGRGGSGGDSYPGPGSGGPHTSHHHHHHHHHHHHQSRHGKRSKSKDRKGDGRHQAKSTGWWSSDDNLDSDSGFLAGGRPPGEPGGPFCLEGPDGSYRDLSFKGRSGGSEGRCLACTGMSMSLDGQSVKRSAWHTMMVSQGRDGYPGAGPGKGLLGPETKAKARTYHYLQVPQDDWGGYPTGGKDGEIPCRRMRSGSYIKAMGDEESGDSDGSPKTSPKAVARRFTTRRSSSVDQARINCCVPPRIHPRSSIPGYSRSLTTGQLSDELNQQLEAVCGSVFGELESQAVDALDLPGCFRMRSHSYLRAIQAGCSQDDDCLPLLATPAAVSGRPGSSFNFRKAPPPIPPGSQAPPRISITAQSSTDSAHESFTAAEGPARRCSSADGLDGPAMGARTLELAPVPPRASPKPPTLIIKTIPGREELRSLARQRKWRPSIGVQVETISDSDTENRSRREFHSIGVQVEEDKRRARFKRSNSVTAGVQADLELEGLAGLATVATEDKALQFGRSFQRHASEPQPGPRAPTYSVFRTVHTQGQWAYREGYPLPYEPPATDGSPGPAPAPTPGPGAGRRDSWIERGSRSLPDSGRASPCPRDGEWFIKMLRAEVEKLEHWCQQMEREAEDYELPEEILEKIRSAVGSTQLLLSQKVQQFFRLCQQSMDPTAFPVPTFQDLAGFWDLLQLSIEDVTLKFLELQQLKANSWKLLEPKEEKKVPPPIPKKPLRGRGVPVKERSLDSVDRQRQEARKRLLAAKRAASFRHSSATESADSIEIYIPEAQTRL
Test: Immunoprecipitation with anti-GST antibody and Protein G-sepharose, Western blot with anti-His-tag antibody
Procedure: After adding 1 μl of anti-GST antibody (SIGMA) and agitating for 1 hour at 4° C., a further 30 μl of Protein G-sepharose was added thereto, and agitation proceeded for an additional 6 hours at 4° C. Thereafter, the supernatant was removed by centrifugation, and Protein G-sepharose was washed three times with 500 μl of 1% Triton-X/20 mM Tris (pH 7.4). After the washes, 30 μl of 2× sample buffer (2% SDS/50 mM Tris (pH 6.8)/30% glycerol/0.01% bromophenol blue) containing 2-mercaptoethanol was added to Protein G-sepharose and mixed. The samples were boiled for 2 minutes, subjected to electrophoresis on a 5%-20% polyacrylamide gel, and transferred onto a PVDF membrane. Then Western blotting was performed with anti-GST antibodies and anti-His-tag antibodies.
However, when Protein-Y (His-PJ01087) was reacted with Protein-X (GST-hj02537) or the Protein-X mutant (GST-hj (GK−)) to perform immunoprecipitation with an anti-GST antibody followed by detecting with an anti-His-tag antibody, no band showing Protein-Y was detected. Thus, no result showing that binding of Protein-Y to Protein-X exists could be obtained (lanes 5 or 6 in FIG. 23).

B1: GST fused novel PSD (Protein-X) (hj02537) (other, not shown: a dimerising Fc or GST)
chain: MPALSTGSGSDTGLYELLAALPAQLQPHVDSQEDLTFLWDMFGEKSLHSLVKIHEKLHYYEKQSPVPILHGAAALADDLAEELQNKPLNSEIRELLKLLSKPNVKALLSVHDTVAQKNYDPVLPPMPEDIDDEEDSVKIIRLVKNREPLGATIKKDEQTGAIIVARIMRGGAADRSGLIHVGDELREVNGIPVEDKRPEEIIQILAQSQGAITFKIIPGSKEETPSKEGKMFIKALFDYNPNEDKAIPCKEAGLSFKKGDILQIMSQDDATWWQAKHEADANPRAGLIPSKHFQERRLALRRPEILVQPLKVSNRKSSGFRRSFRLSRKDKKTNKSMYECKKSDQYDTADVPTYEEVTPYRRQTNEKYRLVVLVGPVGVGLNELKRKLLISDTQHYGVTVPHTTRARRSQESDGVEYIFISKHLFETDVQNNKFIEYGEYKNNYYGTSIDSVRSVLAKNKVCLLDVQPHTVKHLRTLEFKPYVIFIKPPSIERLRETRKNAKIISSRDDQGAAKPFTEEDFQEMIKSAQIMESQYGHLFDKIIINDDLTVAFNELKTTFDKLETETHWVPVSWLHS
notes: Crude 1% Triton-X E. coli supernatant used for immunoprecipitation; also called GST-hj02537
binding result: no binding
